In patent US20220193270A1, “METHOD FOR ENHANCING TUMOR GROWTH” (MINERVA BIOTECHNOLOGIES CORPORATION, priority 2013, published 2022):

Key:
[1] = tested on: MUC1-positive T47D breast cancer cells; assay: RT-PCR of cancer stem cell markers and chromatin rearrangement factors in T47D cells cultured in serum-free minimal media with agent; format: cell-based, human
Description: (§1) Example 3: Agents that are able to maintain stem cells in the naïve state transform cancer cells into cancer stem cells wherein only a small number of cells are required for engraftment. Cancer cells were cultured according to standard practice. In the controls, the cancer cells were cultured in their normal media: RPMI for T47D breast cancer cells, DU145 and PC3 prostate cancer cells. However, the test agents, recombinant proteins human NME1 dimers, bacterial HSP593 NME1 dimers, human NME7-AB and 2i, were added to a serum-free minimal media to eliminate potential interference from the many growth factors and cytokines in serum.
Serum-free Minimal Media 500 mL includes the following components: 394 mL DMEM/F12, GlutaMAX; 100 mL Knockout™ Serum Replacement; 5.0 mL 100×MEM Non-essential Amino Acid Solution; 0.9 mL P-mercaptoethanol, 55 mM stock.
(§2) To this serum-free minimal media, rhNME1 (aka NM23) was added to a final concentration of 8 nM, or bacterial HSP593 recombinant NME1 was added to a final concentration of 8 nM, or rhNME7-AB was added to a final concentration of 4 nM, or 2i inhibitors, PD0325901 and CHIR99021, which inhibit the MAP kinase pathway and GSK3, respectively, were added to a final concentration of 3 μM and 1 μM.
When a rho kinase inhibitor, “Ri” or “ROCi”, was added it was Y27632 from Stemgent (Cambridge, Mass.), added immediately before use to a final concentration of 10 uM.
Example 3a: Breast cancer T47D cells were cultured either in the traditional RPMI growth media or in a minimal stem cell media to which was added either human NME1 dimers, also known as NM23-H1, bacterial HSP593 NME1 dimers, human NME7-AB, or kinase inhibitors known as ‘2i’. What these agents have in common is that they are each able to promote the growth of stem cells in the naive state or are able to revert primed state stem cells to the less mature naive state. We observed that some of the T47D cancer cells cultured in any of these agents became non-adherent. These ‘floaters’ were also morphologically different. The addition of a rho kinase inhibitor, called ‘Ri’ or ‘ROCP here caused most of the cells to remain attached to the surface. […] When a rho kinase inhibitor is added, all the cells remain attached but the RT-PCR measurements indicate that the resultant measure is of a mixture of the cells that were transformed and those that were not or were not yet.
Example 3c: In this example, the effect of ‘2i’ inhibitors on cancer cells was tested. Recall that 2i is the name given to 2 small molecules, […] that inhibit the MAP kinase pathway and GSK3 respectively. […] In this experiment, we cultured MUCl-positive T47D breast cancer cells in minimal media to which was added either 2i or NME7-AB.

[2] = tested on: PC3 MUC1-negative prostate cancer cells; assay: RT-PCR of stem cell markers in PC3 cells cultured with agent; format: cell-based, human
Description: as §1, §2
PC3 MUCl-negative prostate cancer cells were also tested for their ability to transform into cancer stem cells when cultured in agents that are able to maintain stem cells in the naïve state. PC3 cells were cultured as described above with either human NME1 dimers, bacterial NME1 dimers or NME7-AB. […] Thus, the RT-PCR measurements of the cancer stem cell markers may be lower because measurements will be the average of transformed cells and non-transformed cells.

human fibroblasts = assay: RT-PCR of stem/cancer markers and chromatin rearrangement factors in fibroblasts cultured with NME proteins; format: cell-based; conditions: after 15-20 days in culture
Description: Agents that are able to maintain stem cells in the naive state are also able to transform somatic cells to a cancer or stem-like state. Human NME1 dimer or human NME7 are able to make somatic cells revert to a less mature state, expressing stem and cancer cell markers. Bacterial NME from HSP 593 was tested alongside the human homologs to determine if it could mimic their function by being able to revert somatic cells to a cancer-like state. Human fibroblasts were cultured in a serum-free minimal base media with either HSP 593, human NME1 dimers or human NME7-AB as the only growth factor or cytokine. […] Recalling that stem cells and metastatic cancer cells can grow anchorage-independently, we repeated the experiments but this time a rho kinase inhibitor was added to one set of cells to make the cells adhere to the surface. […] Photos of the experiment show the dramatic change in morphology as the fibroblasts revert when cultured in human or bacterial NME, FIGS. 52-59. The relative order of efficiency of reverting somatic cells to a less mature state was NME7>NME1 dimers >NME1 bacterial. […] However, Bacterial NME from HSP 593 apparently up-regulates expression of human NME7 and NME1.
Example 3d: In this example, fibroblast cells were cultured in the presence of recombinant human NME1/NM23 dimers, bacterial HSP593 NME1 dimers or NME7-AB. The fibroblasts were cultured in their normal media as a control, which is for 500 mL, 445 mL DMEM high glucose base media, 5 mL GlutaMAX and 50 mL of fetal bovine serum (FBS). After 15-20 days in culture with either NME1/NM23 dimers, bacterial HSP593 NME1 dimers or NME7-AB, the morphology of the cells completely changed so that they no longer were recognizable as fibroblasts. […] Here, ‘minus ROCi’ refers to cells that became non-adherent and floated off the surface.

[3] = serum-free minimal media with agent vs RPMI, FIG. 6
[4] = summary statement, cells not named

B1: NME7-AB: recombinant human NME7 variant (A and B domains, SEQ ID NO:39) secreted as a monomer; 'NME7' in the experiments means this protein (protein)
chain: MEKTLALIKPDAISKAGEIIEIINKAGFTITKLKMMMLSRKEALDFHVDHQSRPFFNELIQFITTGPIIAMEILRDDAICEWKRLLGPANSGVARTDASESIRALFGTDGIRNAAHGPDSFASAAREMELFFPSSGGCGPANTAKFTNCTCCIVKPHAVSEGLLGKILMAIRDAGFEISAMQMFNMDRVNVEEFYEVYKGVVTEYHDMVTEMYSGPCVAMEIQQNNATKTFREFCGPADPEIARHLRPGTLRAIFGKTKIQNAVHCTDLPEDGLLEVQYFFKILDN
modifications: Human NME7-AB
notes: 'NME7' in the experiments means this protein
expression of NANOG, KLF2, KLF4 and TBX3 ([1]; FIG. 6): modest increases
expression of CDH1 (E-cadherin), MUC1 and NANOG ([1]; FIG. 7): increases
expression of CXCR4, SOX2 and OCT4 ([1]; FIG. 7): dramatic increases
expression of stem cell markers KLF2 and KLF4 ([1]; FIG. 7): modest increases
expression level of the cancer stem cell markers ([1]; FIG. 9 and FIG. 10, combinations with 2i versus NME7-AB alone): even higher expression level
expression of MBD3, CHD4, BRD4 and JMJD6 ([1]; cancer cells cultured in agent, FIG. 13, FIG. 14): naturally suppressed
overexpression of metastasis receptor CXCR4 ([1]; floaters after seven (7) days in recombinant human NME7-AB, FIG. 21 legend): more than 100 fold
expression of CXCR4 over control cells cultured in RPMI media ([1]; floating cells after 7-10 days in minimal media with 4 nM rhNME7-AB, cells used for implantation): 130 times
expression of chromatin rearrangement factors MBD3 and CHD4 ([1]; minimal media with agent, FIG. 13, FIG. 14): suppressed expression
expression of metastatic receptor CXCR4 relative to T47D cells in normal growth media ([1]; serum-free minimal media with agent as single growth factor vs RPMI, FIG. 6): ~200 times
CDH1 (E-cadherin) expression increase ([1]; serum-free minimal media with agent vs RPMI): about 10 fold
MUC1 expression increase [1, 3]: about 10 fold
OCT4 expression increase [1, 3]: about 50 times
SOX2 expression increase [1, 3]: ~200 times
up-regulation of CXCR4 [1, 4]: 200 ×
up-regulation of KLF4 [1, 4]: 4 ×
up-regulation of MUC1 [1, 4]: 10 ×
up-regulation of SOX2 [1, 4]: > 150 ×
expression of stem cell markers SOX2, OCT4 and NANOG ([2]; after passage in agent, FIG. 12a): modest increases
expression of cancer stem cell or stem cell markers ([2]; serial passaging in the media, FIG. 12b): decreased
expression of stem cell marker genes OCT4 and NANOG (human fibroblasts; FIG. 15): greatly increased expression
expression of BRD4, JMJD6, MBD3 and CHD4 (human fibroblasts; FIG. 16): decreased expression
